From patent US20070160981A1 (priority 2005, published 2007)
Several values for one entry are separate records, joined by “and”; a condition that tells them apart may be missing. Equal entries are not always repeated.

Columns and labels:
SARS-CoV PLP2 = SARS-CoV PLP2 (Severe acute respiratory syndrome coronavirus, UniProt P0C6U8)
[1] = system: T1, 10-mer oligopeptide FRLKGGAPIK (six P residues, four P′ residues)
T1 sequence: FRLKGGAPIK

[2] = system: T2, 10-mer oligopeptide RLKGGAPIKG (five P residues, five P′ residues)
T2 sequence: RLKGGAPIKG

[3] = system: T3, 11-mer Gly818-Ala819 site-containing oligopeptide VFRLKGGAPIK
T3 sequence: VFRLKGGAPIK

[4] = system: T4, 12-mer oligopeptide ISLKGGKIVSTC containing the Gly2740-Lys2741 cleavage site
T4 sequence: ISLKGGKIVSTC

[5] = system: T5, 12-mer oligopeptide RELNGGAVTRYV containing the Gly180-Ala181 cleavage site
T5 sequence: RELNGGAVTRYV

[6] = system: 12-mer oligopeptide […] containing the Gly818-Ala819 cleavage site
[7] = system: T6, 14-mer Gly818-Ala819 site-containing oligopeptide VFRLKGGAPIKGVT
T6 sequence: VFRLKGGAPIKGVT

[8] = system: T7, 16-mer Gly818-Ala819 site-containing oligopeptide NVFRLKGGAPIKGVTF
T7 sequence: NVFRLKGGAPIKGVTF

[9] = system: T8, 18-mer Gly818-Ala819 site-containing oligopeptide NNVFRLKGGAPIKGVTFG
T8 sequence: NNVFRLKGGAPIKGVTFG

[10] = system: T9, 8-mer oligopeptide LKGGAPIK
T9 sequence: LKGGAPIK

[11] = system: T10, 9-mer oligopeptide FRLKGGAPI
T10 sequence: FRLKGGAPI

[12] = system: BCoV 12-mer peptide substrate (P6-P1′ FSLKGGA)
[13] = system: Fluorogenic peptide substrate Abz-[…]-EDDNP
[14] = system: MHV 12-mer peptide substrate (P6-P1′ FSLKGGA)

RELNGGAVTRYV [Gly180-Ala181]
Cleavage % 12 hours (SARS-CoV PLP2): 5 ± 1%
percentage of the cleavage after 12 hours of digestion (SARS-CoV PLP2): 5%

SARS-CoV papain-like protease 2 (SARS-CoV PLP2), residues 1414-1858 of pp1a, N-terminal 6xHis tag
Cleavage %, 2 hours [1]: 49.9%
Cleavage %, 12 hours [1]: 100%
Cleavage %, 2 hours [2]: 14.8%
Cleavage %, 12 hours [2]: 56.4%
Cleavage %, 2 hours [3]: 52.9%
Cleavage %, 12 hours [3]: 100%
Cleavage %, 2 hours [4]: 7%
Cleavage %, 12 hours [4]: 29%
Cleavage %, 12 hours [5]: 5%
Cleavage %, 2 h [6]: 70.1%
Cleavage %, 2 hours [6]: 70% and 70.1%
Cleavage %, 12 h [6]: 100%
Cleavage %, 12 hours [6]: 100%
Cleavage %, 2 hours [7]: 67.6%
Cleavage %, 12 hours [7]: 100%
Cleavage %, 2 hours [8]: 63%
Cleavage %, 12 hours [8]: 100%
Cleavage %, 2 hours [9]: 60.5%
Cleavage %, 12 hours [9]: 100%
Cleavage %, 2 hours [10]: 11.4%
Cleavage %, 12 hours [10]: 44.7%
Cleavage %, 2 hours [11]: 36.2%
Cleavage %, 12 hours [11]: 85.1%
Cleavage %, 2 hours [12]: 27%
Cleavage %, 12 hours [12]: 85%
Kcat/Km (µM^-1min^-1) at pH 5.25 [13]: 0.06 µM^-1min^-1
Kcat/Km (µM^-1min^-1) at pH 6.05 [13]: 0.17 µM^-1min^-1
Kcat/Km (µM^-1min^-1) at pH 6.82 [13]: 0.31 µM^-1min^-1
Kcat/Km (µM^-1min^-1) at pH 7.42 [13]: 0.27 µM^-1min^-1
Kcat/Km (µM^-1min^-1) at pH 8.01 [13]: 0.3 µM^-1min^-1
Kcat/Km (µM^-1min^-1) at pH 8.65 [13]: 0.3 µM^-1min^-1
Kcat/Km (µM^-1min^-1) at pH 9.20 [13]: 0.21 µM^-1min^-1
Kcat/Km (µM^-1min^-1) at pH 9.80 [13]: 0.08 µM^-1min^-1
Km (µM) at pH 5.25 [13]: 21.4 µM
Km (µM) at pH 6.05 [13]: 64 µM
Km (µM) at pH 6.82 [13]: 65.5 µM
Km (µM) at pH 7.42 [13]: 77.2 µM
Km (µM) at pH 8.01 [13]: 72 µM
Km (µM) at pH 8.65 [13]: 71.5 µM
Km (µM) at pH 9.20 [13]: 68 µM
Km (µM) at pH 9.80 [13]: 70.5 µM
kcat (min^-1) at pH 5.25 [13]: 1.37 min^-1
kcat (min^-1) at pH 6.05 [13]: 11.9 min^-1
kcat (min^-1) at pH 6.82 [13]: 20.6 min^-1
kcat (min^-1) at pH 7.42 [13]: 19.8 min^-1
kcat (min^-1) at pH 8.01 [13]: 21.9 min^-1
kcat (min^-1) at pH 8.65 [13]: 22 min^-1
kcat (min^-1) at pH 9.20 [13]: 14.1 min^-1
kcat (min^-1) at pH 9.80 [13]: 5.99 min^-1
pH-independent kcat value (constant C from the pH-Log kcat plot) [13]: 25.4±3.43 min^-1
pH-independent kcat/Km value (constant C from the pH-Log (kcat/Km) plot) [13]: 0.31±0.02 min^-1µM^-1
true Km value [13]: corrected to 82 µM
Cleavage %, 2 hours [14]: 21%
Cleavage %, 12 hours [14]: 80%
